Test results: patent publication US20110224143A1 (ROCKERFELLER UNIVERSITY, published 2011)
Positions of bridges follow the written chain, without caps; N, C: chain ends. No end group written: not given here.

Molecular target: T1, sNUCB1 (N-terminally truncated human NUCB1, deletion of residues 1-31) (Homo sapiens, UniProt Q02818 32-461)
T1 construct: Expressed in E. coli; also called Calnuc; Ca2+ free NUCB1
T1 sequence: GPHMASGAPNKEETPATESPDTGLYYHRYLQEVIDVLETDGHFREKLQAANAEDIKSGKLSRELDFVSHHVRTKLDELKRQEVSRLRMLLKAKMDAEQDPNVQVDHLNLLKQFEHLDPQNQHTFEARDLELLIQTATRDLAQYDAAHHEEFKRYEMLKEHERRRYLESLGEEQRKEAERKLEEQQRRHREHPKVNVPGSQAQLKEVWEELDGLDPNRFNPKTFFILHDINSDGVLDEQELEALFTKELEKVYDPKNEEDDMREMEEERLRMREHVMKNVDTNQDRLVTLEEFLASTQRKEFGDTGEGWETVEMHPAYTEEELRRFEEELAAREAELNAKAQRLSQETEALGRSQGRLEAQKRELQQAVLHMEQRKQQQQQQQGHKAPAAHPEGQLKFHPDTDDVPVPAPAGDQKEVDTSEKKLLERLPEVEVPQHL
Assay: inferred from TEM of Amylin fibrillization with Ca2+ free NUCB1 added 1:1 at t=0, 2, 7 and 15 min
Source text: Aggregation of Amylin involves an initial lag phase, which is associated with the formation of a nucleus. This nucleation phase is followed by the growth phase where monomers/oligomers add on to the nucleus converting the protofibrillar species into mature fibrils (Merlini and Bellotti, N. Engl. J. Med. 349, 583-596, 2003). Inhibitors of amyloidogenesis, known to date, either prolong the lag phase or slow down the growth phase. […] In the second reaction, Amylin oligomerization was allowed to proceed for 2 min into the reaction after which equimolar amount of NUCB1 was added. […] In the third reaction, NUCB1 was added after the nucleation phase of Amylin aggregation was complete (t=7 min). […] In the fourth experiment, the fibrillization reaction was allowed to proceed to the growth phase and NUCB1 was added during the elongation phase (t=1 5 min). […] This summarizes and supports the observation that Ca2+ free NUCB1 can inhibit the aggregation of Amylin at any stage during the fibrillization reaction.

B1: Wild type human IAPP (Amylin) (peptide, UniProt P10997 34-70, looked up)
peptide: KCNTATCATQRLANFLVHSSNNFGAILSSTNVGSNTY-NH2
modifications: disulfide 2-7 (inferred)
notes: mature; Present in the assays as monomers, oligomers, protofibrils or mature fibrils, depending on the time of addition; also called hIAPP; Amylin peptide
- binding result: binds
